# From PMC6701479
# Columns and labels:
# [1] = biological target: H3K9me3 containing chromatin fibers (12 × 601 arrays with recombinant human histone octamer) (human); assay: single-molecule TIRF (smTIRF); chromatin fibers immobilised; 3 nM Atto 532-labeled HP1α with 50 nM KAP1; 50 mM Hepes, 130 mM KCl, 10% glycerol; 22°C
# [2] = biological target: H3K9me3 containing chromatin fibers (12 × 601 arrays with recombinant human histone octamer) (human); assay: single-molecule TIRF (smTIRF); chromatin fibers immobilised; 3 nM Atto 532-labeled HP1α with 100 nM KAP1; 50 mM Hepes, 130 mM KCl, 10% glycerol; 22°C
# [3] = biological target: H3K9me3 containing chromatin fibers (12 × 601 arrays with recombinant human histone octamer) (human); assay: single-molecule TIRF (smTIRF); chromatin fibers immobilised; 3 nM Atto 532-labeled HP1α with 200 nM KAP1; 50 mM Hepes, 130 mM KCl, 10% glycerol; 22°C
# [4] = biological target: H3K9me3 containing chromatin fibers (12 × 601 arrays with recombinant human histone octamer) (human); assay: single-molecule TIRF (smTIRF); chromatin fibers immobilised; 3 nM Atto 532-labeled HP1α with 400 nM KAP1; 50 mM Hepes, 130 mM KCl, 10% glycerol; 22°C
# Chain of Atto 532–labeled HP1α (P45973 whole entry): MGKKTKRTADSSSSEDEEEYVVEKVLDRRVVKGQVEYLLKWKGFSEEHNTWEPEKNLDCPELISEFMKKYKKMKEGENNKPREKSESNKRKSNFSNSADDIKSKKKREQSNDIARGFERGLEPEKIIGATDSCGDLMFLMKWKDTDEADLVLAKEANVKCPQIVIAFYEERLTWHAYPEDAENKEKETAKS
substance,measurement,setting,value
Atto 532–labeled HP1α (from UniProt P45973 1-191) (natural protein),kon,[1],1.03e+06 M⁻¹ s⁻¹
same,"τ (off,1)",[1],0.29 s
same,"τ (off,2)",[1],3.64 s
same,kon,[2],1.42e+06 M⁻¹ s⁻¹
same,"τ (off,1)",[2],0.28 s
same,"τ (off,2)",[2],5.79 s
same,kon,[3],1.43e+06 M⁻¹ s⁻¹
same,"τ (off,1)",[3],0.27 s
same,"τ (off,2)",[3],5.47 s
same,kon,[4],770000 M⁻¹ s⁻¹
same,"τ (off,1)",[4],0.23 s
same,"τ (off,2)",[4],5.03 s
